Experimental data from US20150299797A1, “COMPOSITIONS AND METHODS RELATING TO BLOOD-BASED BIOMARKERS OF BREAST CANCER” (UNIVERSITY OF UTAH RESEARCH FOUNDATION, priority 2012, published 2015).
Entries after “also recorded” stand apart in the source; their conditions may differ.

System: normal mammary epithelial cells from high-risk (HBC) women or control women
Assay: Drug response assay (CellTiter-Glo cell viability, dose-response)
Assay type: cell-based, human
Conditions: HBC/high-risk vs control, viability after 96 hours, TRAIL p-value<0.001
Protocol: Normal mammary epithelial cells isolated from either high-risk women undergoing prophylactic mastectomy or control women with no family history of breast cancer undergoing breast-reduction surgery for non-cancer related health issues were isolated, and single-cell suspensions were generated. 1500 cells/well for each patient samples were plated in 40 microliters of MEBM basal media supplemented with a MEGM Bulletkit [Lonza] in half-well 96-well plates [Nunc] in triplicate for each drug dose. After 24 hours, TRAIL, Afatinib, Gefitinib, and EGF were added. The indicated doses were chosen within the average linear range of drug effect: TRAIL (0.1 ng/mL-5.0 ng/ml), Afatinib (10 nM-[…]), Gefitinib (0.001 mM-0.5 mM), EGF (5 ng/mL-500 ng/mL) [Millipore (TRAIL) and Selleckchem]. A BIOMEK 3000 (Beckman Coulter, Brea, Calif., USA) robot was used to seed the cells and dispense the drugs. After 96 hours, cell viability was quantified using the CellTiter-Glo Luminescent Cell Viability Assay [Promega]. The proportion of viable cells was calculated for each dosage by comparing against cell counts for non-treated cells. A summary value was calculated for each cell line as the slope of a linear-regression line fitted to the cell-count proportions.

B1: TRAIL: TNF-related apoptosis inducing ligand (TRAIL), from Millipore (protein, UniProt P50591 1-281, looked up)
Tumor necrosis factor ligand …: MAMMEVQGGPSLGQTCVLIVIFTVLLQSLCVAVTYVYFTNELKQMQDKYSKSGIACFLKEDDSYWDPNDEESMNSPCWQVKWQLRQLVRKMILRTSEETISTVQEKQQNISPLVRERGPQRVAAHITGTRGRSNTLSSPNSKNEKALGRKINSWESSRSGHSFLSNLHLRNGELVIHEKGFYYIYSQTYFRFQEEIKENTKNDKQMVQYIYKYTSYPDPILLMKSARNSCWSKDAEYGLYSIYQGGIFELKENDRIFVSVTNEHLIDMDHEASFFGAFLVG
In the case of B1, the “response of primary breast cells of HBC women compared to controls (proportion of viable cells, slope of fitted dose-response)” value is reported as “significantly increased response; also recorded: significantly more responsive”.
